Measured values: US20200165325A1

Assays:
[1] = target: Env (gp120) of HIV-1 strain TRO.11 (HIV-1)
[2] = target: Env (gp120) of HIV-1 strain RHPA4259.7 (HIV-1)
[3] = target: Env (gp120) of HIV-1 strain T250-4 (HIV-1)
[4] = target: Env (gp120) of HIV-1 strain ZM53M.PB12 (HIV-1)
[5] = target: Env (gp120) of HIV-1 strain Ce2010_F5 (HIV-1)
[6] = target: Env (gp120) of HIV-1 strain ZM197M.PB7 (HIV-1)
[7] = target: Env (gp120) of HIV-1 strain Ce2060_G9 (HIV-1)
[8] = target: Env (gp120) of HIV-1 strain 6535.3 (HIV-1)
[9] = target: Env (gp120) of HIV-1 strain C1080.c03 (HIV-1)
[10] = target: Env (gp120) of HIV-1 strain T255-34 (HIV-1)
[11] = target: Env (gp120) of HIV-1 strain ZM135M.PL10a (HIV-1)
[12] = target: Env (gp120) of HIV-1 strain 703357.C02 (HIV-1)
[13] = target: Env (gp120) of HIV-1 strain 3817.v2.c59 (HIV-1)
[14] = target: Env (gp120) of HIV-1 strain Du156.12 (HIV-1)
[15] = target: Env (gp120) of HIV-1 strain 6480.v4.c25 (HIV-1)
[16] = target: Env (gp120) of HIV-1 strain ZM214M.PL15 (HIV-1)
[17] = target: Env (gp120) of HIV-1 strain 3718.v3.c11 (HIV-1)
[18] = target: Env (gp120) of HIV-1 strain X1193_c1 (HIV-1)
[19] = target: Env (gp120) of HIV-1 strain 6545.v4.c1 (HIV-1)
[20] = target: Env (gp120) of HIV-1 strain X1254_c3 (HIV-1)
[21] = target: Env (gp120) of HIV-1 strain Ce0393_C3 (HIV-1)
[22] = target: Env (gp120) of HIV-1 strain 620345.c01 (HIV-1)
[23] = target: Env (gp120) of HIV-1 strain CAAN5342.A2 (HIV-1)
[24] = target: Env (gp120) of HIV-1 strain Q461.e2 (HIV-1)
[25] = target: Env (gp120) of HIV-1 strain PVO.4 (HIV-1)
[26] = target: Env (gp120) of HIV-1 strain 6540.v4.c1 (HIV-1)
[27] = target: Env (gp120) of HIV-1 strain Q23.17 (HIV-1)
[28] = target: Env (gp120) of HIV-1 strain C2101.c01 (HIV-1)
[29] = target: Env (gp120) of HIV-1 strain CNE20 (HIV-1)
[30] = target: Env (gp120) of HIV-1 strain TRJO4551.58 (HIV-1)
[31] = target: Env (gp120) of HIV-1 strain Ce1176_A3 (HIV-1)
[32] = target: Env (gp120) of HIV-1 strain Ce0682_E4 (HIV-1)
[33] = target: Env (gp120) of HIV-1 strain SC422661.8 (HIV-1)
[34] = target: Env (gp120) of HIV-1 strain 0330.v4.c3 (HIV-1)
[35] = target: Env (gp120) of HIV-1 strain 89-F1_2_25 (HIV-1)

| Substance | neutralization IC50 [1] [mg/L] | neutralization IC50 [2] [mg/L] | neutralization IC50 [3] [mg/L] | neutralization IC50 [4] [mg/L] | neutralization IC50 [5] [mg/L] | neutralization IC50 [6] [mg/L] | neutralization IC50 [7] [mg/L] | neutralization IC50 [8] [mg/L] | neutralization IC50 [9] [mg/L] | neutralization IC50 [10] [mg/L] | neutralization IC50 [11] [mg/L] | neutralization IC50 [12] [mg/L] | neutralization IC50 [13] [mg/L] | neutralization IC50 [14] [mg/L] | neutralization IC50 [15] [mg/L] | neutralization IC50 [16] [mg/L] | neutralization IC50 [17] [mg/L] | neutralization IC50 [18] [mg/L] | neutralization IC50 [19] [mg/L] | neutralization IC50 [20] [mg/L] | further results |
| --- | --- | --- | --- | --- | --- | --- | --- | --- | --- | --- | --- | --- | --- | --- | --- | --- | --- | --- | --- | --- | --- |
| NIH45-46^G54W IgG (antibody) | 0.04 | < 0.001 | 1.33 | 0.04 | 0.038 | 0.04 | 0.005 | 0.03 | 0.2 | < 0.001 | 0.04 | 3.43 | > 50 | < 0.001 | 0.004 | 0.03 | 0.01 | < 0.001 | 18.9 | 0.002 | neutralization IC50 [21]: 0.013 mg/L; neutralization IC50 [22]: > 50 mg/L; neutralization IC50 [23]: 0.07 mg/L; neutralization IC50 [24]: 0.009 mg/L; neutralization IC50 [25]: 0.05 mg/L; neutralization IC50 [26]: > 50 mg/L; neutralization IC50 [27]: 0.01 mg/L; neutralization IC50 [28]: 0.04 mg/L; neutralization IC50 [29]: 0.04 mg/L; neutralization IC50 [30]: 0.01 mg/L; neutralization IC50 [31]: 0.16 mg/L; neutralization IC50 [32]: 0.01 mg/L; neutralization IC50 [33]: 0.02 mg/L; neutralization IC50 [34]: 0.03 mg/L; neutralization IC50 [35]: > 50 mg/L |
| NIH45-46^G54F IgG (antibody) | 0.11 | 0.005 | > 50 | 0.08 | 0.046 | 0.09 | 0.022 | 0.07 | 0.36 | 0.03 | 0.13 | 7.91 | > 50 | < 0.001 | 0.014 | 0.09 | 0.32 | < 0.001 | > 50 | 0.011 | neutralization IC50 [21]: 0.04 mg/L; neutralization IC50 [22]: > 50 mg/L; neutralization IC50 [23]: 0.1 mg/L; neutralization IC50 [24]: 0.03 mg/L; neutralization IC50 [25]: 0.07 mg/L; neutralization IC50 [26]: > 50 mg/L; neutralization IC50 [27]: 0.03 mg/L; neutralization IC50 [28]: 0.11 mg/L; neutralization IC50 [29]: 0.53 mg/L; neutralization IC50 [30]: 0.03 mg/L; neutralization IC50 [31]: 0.24 mg/L; neutralization IC50 [32]: 0.011 mg/L; neutralization IC50 [33]: 0.04 mg/L; neutralization IC50 [34]: 0.04 mg/L; neutralization IC50 [35]: > 50 mg/L |
| NIH45-46 IgG (antibody) | 1.61 | 0.017 | > 50 | 0.175 | 0.101 | 0.15 | 0.058 | 0.23 | 2.48 | 0.71 | 0.59 | 19.2 | > 50 | 0.02 | 0.032 | 0.17 | 19.6 | 0.021 | > 50 | 0.032 | neutralization IC50 [21]: 0.334 mg/L; neutralization IC50 [22]: > 50 mg/L; neutralization IC50 [23]: 0.15 mg/L; neutralization IC50 [24]: 0.076 mg/L; neutralization IC50 [25]: 0.12 mg/L; neutralization IC50 [26]: > 50 mg/L; neutralization IC50 [27]: 0.14 mg/L; neutralization IC50 [28]: 4.24 mg/L; neutralization IC50 [29]: 7.83 mg/L; neutralization IC50 [30]: 0.04 mg/L; neutralization IC50 [31]: 0.93 mg/L; neutralization IC50 [32]: 0.054 mg/L; neutralization IC50 [33]: 0.06 mg/L; neutralization IC50 [34]: 0.09 mg/L; neutralization IC50 [35]: > 50 mg/L |
| NIH45-46^G54Y IgG (antibody) | 0.08 | 0.007 | > 50 | 0.06 | 0.049 | 0.07 | 0.021 | 0.08 | 0.29 | 0.04 | 0.09 | 5.6 | > 50 | 0.007 | 0.018 | 0.06 | 0.3 | 0.006 | > 50 | 0.013 | neutralization IC50 [21]: 0.036 mg/L; neutralization IC50 [22]: > 50 mg/L; neutralization IC50 [23]: 0.1 mg/L; neutralization IC50 [24]: 0.023 mg/L; neutralization IC50 [25]: 0.06 mg/L; neutralization IC50 [26]: > 50 mg/L; neutralization IC50 [27]: 0.02 mg/L; neutralization IC50 [28]: 0.09 mg/L; neutralization IC50 [29]: 0.33 mg/L; neutralization IC50 [30]: 0.03 mg/L; neutralization IC50 [31]: 0.21 mg/L; neutralization IC50 [32]: 0.017 mg/L; neutralization IC50 [33]: 0.04 mg/L; neutralization IC50 [34]: 0.03 mg/L; neutralization IC50 [35]: > 50 mg/L |
